Laboratory results as given in patent US20250250301A1, “DE NOVO DESIGNED BINDERS TARGETING HUMAN EPCAM AND PDL1 RECEPTORS” (University of Washington, priority 2022, published 2025).
Where a chain is given by its changes, count along the chain named. Where no end group is shown, it is not given here. AF594 = Alexa Fluor 594

What was measured:
PDL1+SKOV3 cells = assay: Cell binding assay with AF594-labeled binder, SKOV3 cells; assay type: cell-based, human
Experimental: FIG. 3. Cell binding assay. Binding of control antibodies are shown on the top and the binding for the designed binders are shown the bottom. […] These proteins bind their targets with low to mid nanomolar affinities based on octet data (see FIG. 2A-C). […] The rest of the designs with and without conjugated AF594 are well behaved, remain folded to 60-70° C., and completely refold upon cooling to room temperature. We show sequence, secondary structure information, and interface positions for EpcamBind1_cb4, EpcamBind2_cb10, and, PDL1Bind_cb6 in FIG. 5.

[1] = target: T1, human epithelial cell adhesion molecule (EpCAM) receptor, extracellular portion (human, UniProt P16422 24-265); assay: Octet (BLI), kinetic fitting to association and dissociation; binder 1000 nM to 15.6 nM
T1 construct: extracellular domain; also called human EpCAM receptor
T1 sequence (looked up): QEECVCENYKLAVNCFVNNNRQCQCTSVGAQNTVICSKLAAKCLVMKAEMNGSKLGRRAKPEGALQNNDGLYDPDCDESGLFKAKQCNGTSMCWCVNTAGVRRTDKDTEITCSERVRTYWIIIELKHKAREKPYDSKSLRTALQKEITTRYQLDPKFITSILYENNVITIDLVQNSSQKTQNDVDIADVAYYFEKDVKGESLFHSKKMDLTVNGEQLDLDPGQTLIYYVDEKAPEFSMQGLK
Experimental: FIG. 2B. Octet data for EpcamBind2_cb10. […] Concentrations span a range from 1000 nM (top curve) to 15.6 nM (bottom curve) by two-fold dilution.
(§1) In one embodiment of any of the polypeptides of the disclosure, the polypeptide bind to their targets with nanomolar affinity as measured by octet. In the octet experiments, the target protein is immobilized onto an octet sensor and the kinetics of the binder binding to the target are measured over a range of binder concentrations to determine the binders affinity.

[2] = target: T1, human epithelial cell adhesion molecule …; assay: yeast surface display screen
[3] = target: T2, human programmed death-ligand 1 (PDL1) receptor, extracellular portion (human, UniProt Q9NZQ7 19-238); assay: yeast surface display screen
T2 construct: extracellular domain; also called human PDL1

[4] = target: T1, human epithelial cell adhesion molecule …; assay: Octet (BLI), kinetic fitting to association and dissociation; binder 20 nM to 0.5 nM
Experimental: FIG. 4. Octet data for gs linked dimer of EpCAMBind1_cterm_cys. […] Concentrations from top curve to bottom curve are 20 nM, 10 nM, 5 nM, 2.5 nM, 1 nM and 0.5 nM.
as §1

human EpCAM receptor = target: T3, human EpCAM receptor (Homo sapiens, UniProt P16422); assay: Octet binding to immobilized human EpCAM
T3 sequence (P16422 24-265 limits assumed): T1 sequence (looked up)
Experimental: as §1

[5] = target: T1, human epithelial cell adhesion molecule …; assay: Octet (BLI), kinetic fitting to association and dissociation; binder 100 nM to 1.56 nM
Experimental: FIG. 2A. Octet data for EpcamBind1_cb4. […] Concentrations span a range from 100 nM (top curve) to 1.56 nM (bottom curve) by two-fold dilution.
as §1

[6] = target: T4, PDL1 on PDL1+ SKOV3 cells (human, UniProt Q9NZQ7 19-290); assay: flow cytometry on PDL1 (+) cells (PDL1+ SKOV3), binder at 500 nM and 5 uM by the legend, fluorescence at 561 nm
T4 construct: whole, on cells

[7] = target: T2, human programmed death-ligand 1 (PDL1) …; assay: Octet (BLI), steady state analysis

T2 sequence (Q9NZQ7 19-238): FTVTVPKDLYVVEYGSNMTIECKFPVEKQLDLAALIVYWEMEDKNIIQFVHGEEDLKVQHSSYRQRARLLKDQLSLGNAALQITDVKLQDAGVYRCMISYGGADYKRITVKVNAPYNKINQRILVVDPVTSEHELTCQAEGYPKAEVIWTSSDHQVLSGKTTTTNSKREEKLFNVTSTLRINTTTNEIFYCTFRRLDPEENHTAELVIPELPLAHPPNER
T4 sequence (Q9NZQ7 19-290): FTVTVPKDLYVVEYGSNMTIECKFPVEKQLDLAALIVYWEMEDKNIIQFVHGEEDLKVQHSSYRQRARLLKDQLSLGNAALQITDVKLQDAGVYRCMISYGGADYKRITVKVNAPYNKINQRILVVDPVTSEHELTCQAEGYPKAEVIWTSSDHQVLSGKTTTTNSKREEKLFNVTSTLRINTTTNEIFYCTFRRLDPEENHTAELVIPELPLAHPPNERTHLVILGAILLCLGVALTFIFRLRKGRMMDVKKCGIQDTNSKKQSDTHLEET

For “PDL1Bind1_E39C-AF594 (DEDTDRVFELLNEFNELREEGDPERAREVLEEAERLAKCLSDPTLESFVQAIKRVY)”, the “binding to PDL1+SKOV3 cells” value (PDL1+SKOV3 cells; 500 nM and 5 uM) was “specifically binds” and the “nonspecific binding to PDL1− cells” value (PDL1+SKOV3 cells; 5 uM, comparable to control antibody) was “some minor nonspecific binding”.

B1: EpcamBind2_cb10 (designed binder)
chain: DEVQHEVHELMVRIHSLVVRGNPEEARKLLEELEELAKKTNNPSYHIAVEALEHVIN
notes: Optimized de novo miniprotein against human EpCAM
With B1 the Kd [1] was 500 nM.

B2: EpcamBind2 (designed binder)
chain: B1 chain with M11F, H15Q, S16E, T40Y, N42D, Y45L, H54R
B2: binds [2].

B3: Pdl1Bind (designed binder)
chain: DEDTRRVMELLHEASELREEGDPERAREVLEEAERLAKELGDPSLERFVQAHKRVY
B3: binds [3].

B4: gs linked dimer of EpCAMBind1_cterm_cys (designed binder)
chain: DEERLRELVEELVKELGLSERYKRTLERHLRTALEQGYDEEQIRMNLEQLAQQAREIGGSGGSDEERLRELVEELVKELGLSERYKRTLERHLRTALEQGYDEEQIRMNLEQLAQQAREI
notes: also called EpCAM1_dimer
For B4, the Kd [4] was < 0.01 nM.

B5: gs linked dimer of EpCAMBind1_cterm_cys: gs linked fusion dimer of EpCAMBind1; possibly related to EpCAM1_dimer, SEQ ID NO:18 (protein)
chain: B4 chain
For B5, the “binding affinity in words, EpCAM” value (human EpCAM receptor) was “low picomolar” and the “estimated Kd” value (human EpCAM receptor; kinetic fitting to association and dissociation, 20 nM to 0.5 nM) was < 0.01 nM.

B6: EpcamBind1_cb4 (designed binder)
chain: DEERLRELVEELVKELGLSERYKRTLERHLRTALEQGYDEEQIRMNLEQLAQQAREI
notes: Optimized de novo miniprotein (three helices) against human EpCAM
B6 showed a Kd [5] of 5.6 nM.

B7: PDL1Bind1_E39C-AF594 (designed binder)
chain: DEDTDRVFELLNEFNELREEGDPERAREVLEEAERLAKC(AF594)LSDPTLESFVQAIKRVY
B7: binds [6].

B8: PDL1Bind_cb6 (designed binder)
chain: DEDTDRVFELLNEFNELREEGDPERAREVLEEAERLAKELSDPTLESFVQAIKRVY
notes: Optimized de novo miniprotein against human PDL1
Molecule B8 has a Kd [7] of 2 nM.
